Our source for the protein production values is a protein production outcome set (Wang et al. 2014).
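Note: failed if final PepcDB status was selected cloned or expressed and not failed if soluble or beyond.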

The nature of this data set: label from the status in PepcDB records.
As to “MSSLQGGISLTHIAAGIAVVALIILGVGFYAIYQELASLRSQVEGLNTRYEEISESLEEVQGAFESSRGDIESIASSLESIQDRVSKIEERLGSAATQSDLDAVARELASLTQQLEDLQARIQALEESGAEAGERLDQLAMALQDLQARLASLEERVDEVYASLYFPVTVVDGTGTPVVILERPERIVSMAPSATETLYYVGALDRVVGVDQYSDFPPELNEAKEAGEVEVIGGYWNPSIEAILSLEPDLVVGVASVPNHIQVKKVLSAYGIPVILLPDSSLEDVRESMMIVGKATGEVVGAYEAVLKFDMAVAAAGLLLEGVEPVETAVVVWPNPLFVVGGGTWEHEVIELAGGVNVYGDTQGWPQVSYESLLEADPDVIILMGGHGNSGVTVEGFIEALESQLGEAAWEIDAVASGRIYVLLDEYNDSFARPSPRTVLSIYVLAVLIQPSAFDIQPGDLPSEVSPETLDVLGLLEGRVPEEVLEFLGEALG”, the protein production result was “failed”.

For “PTPKTELVQKFRVQYLGMLPVDRPVGMDTLNSAIENLMTSSSKEDWPSVNMNVADATVTVISEKNEEEVLVECRVRFLSFMGVGKDVHTFAFIMDTGNQRFECHVFWCEPNAANVSEAVQAACSGPSSGIEGRGSSGSSGSSGSSGDAAVTPEERHLSKMQQNGYENPTYKFFEQMQN”, the protein production result is listed as “not failed”.

For “MENPLFCPDCGMMRDNCTCKGKGRLSFFRNIIRPPEKSDTLNEDLQRRYPHIPPEIIENFPFPQPRPGQLDIINDIYQAIEEGYRYVILEAGTGTGKSAIACTLAGIYQPAYILTMTKQLQDQYAREFGFPVVKGRSNFFCLNDNLESTCDMGTCQTLPSSEKFQCPYGVVRGETLLGEEAFQDSYGNRVFFKTAEHCQYWEQKAEAINSPITLMNYDYAFLELNYVGHFDRRNLMILDEAHNIEDKLMRRLEVTISNKRLSKDIRRTIPPSMLREDDPAEWVLQIEAIADHYSDLELDSMSRRRRDRIKRTIKRLSELRMSLEDEPKNWVIDADDDSVSFKPLRVHHYAHDRLFSYSEVCLFMSATILSERLFCQWLGINPGDAYFVRVDSPFPASRRPIELKIAGKMSRNRIRHTAPETIPILNRILERHKNDKGLIHTHNYRCQRFIMDNIPSRRLIDHKASNREAVLRYFEESDEPLVLVSPSMSEGVDLPYDKCRFQVIYKIPFPYLGDKQVNRRQRMDQRWYAYKTIMTLMQAYGRGMRAHDDSCYTYILDGNIEMIFRSPLYRSLLPEFFKEAIVNE”, the protein production entry is reported as “failed”.

For the sequence “MTTDKQTSINLALSTINGKWKLSLMDELFQGTKRNGELMRALDGITQRVLTDRLREMEKDGLVHRESFNELPPRVEYTLTPEGYALYDALSSLCHWGETFAQKKARLNK”, the protein production entry is reported as “not failed”.

Regarding “MEFIVDSVDKTMHIGRQLGSLVNKGDILCLTGDLGTGKTHISKGIAEGLGIDEHITSPTFNIVNEYHSGRLTLYHFDVYRVNDPDEIEAIGFDEYIFGDGVSLIEWANYIEELIPEEYIHIKIEKLPDMGENFRKITINGYGDRYNYIKEIKECLEHHHHHH”, the protein production result is on record as “not failed”.

For “MNIRERKRKHLEACLEGEVAYQKTTTGLEGFRLRYQALAGLALSEVDLTTPFLGKTLKAPFLIGAMTGGEENGERINLALAEAAEALGVGMMLGSGRILLERPEALRSFRVRKVAPKALLIANLGLAQLRRYGRDDLLRLVEMLEADALAFHVNPLQEAVQRGDTDFRGLVERLAELLPLPFPVMVKEVGHGLSREAALALRDLPLAAVDVAGAGGTSWARVEEWVRFGEVRHPELCEIGIPTARAILEVREVLPHLPLVASGGVYTGTDGAKALALGADLLAVARPLLRPALEGAERVAAWIGDYLEELRTALFAIGARNPKEARGRVERV”, the protein production entry is given as “not failed”.

Regarding “MAETIQNFLTEYYSIAIPLSILINIIISLLGFIPSIFLTAINIQLFGVTNGTVISIAGEALGAIISFYIYRMGLQKFTHDKVNKYPKVERLLYVEGREAFLLVLSFRLIPFIPSSIVTLFAALGKMSLLSFSIASTIGKIPALLIEVYSAYHVMNGTNEAKWIVTIAGCIGLYYLWKKWRKK”, the protein production result is reported as “failed”.

Turning to “MLILKNSMASPHPFPWPQRFTVMALTFAWGLSLPVLAQTKSAVQWYNDGVDKLAAQNFSGAIADFTESIKLNDQDADAYYNRGYAKHVLGQYQAAITDYNQAISLNPEFAYALGNRCYAYFLLSQYDKAIQDCSNAIEINPNYADFYVYRGNSQSQLGNETTAIADYNDAIRINAQHANAYYNRALTHNRLKQDQQALADYNQSIQLDPDSAEAYFNRGLTQYRLGDEPKAIADLTKAAELFNAQEKKDMAQKAEAILTQIRAIDA”, the protein production entry is given as “failed”.

“MSKKLVLLIISILCFTALTGCWIVRSDLSGDIIIGDGHGGTSHSIIKYNPATNKFESVEPGLYYEVEYNDDKSKILCYRFLENSEVRRFEICEYDIKSKKFGEPIFIPGDSQKFKGSVKYVPNSDRISFVLDYELHIYDRSSGTLTKLFEVAFNSYSWDNTGKKLLYGDYDENIYIYDMESNEKRKILTGICPVYSNSNEYIAYIGIDQRLTVYNVNTGKKWRTVPVDDSARYIFSPDDKYILLGTEYADLMSFPHYTLYILDYKTGKKKRLFGGEGNVPSLDWK”: the protein production result is listed as “failed”.

As for “VDEPESMVNLAFVKNDSYEKGPDSVVVHVYVKEICRDTSRVLFREQDFTLIFQTRDGNFLRLHPGCGPHTTFRWQVKLRNLIEPEQCTFCFTASRIDICLRKRQSQRWGGLEAPAARVGGA”, the protein production result is “not failed”.

As to “MKNPIIDNIPCVLLAGGKSSRFITNNIQTNKALMPLKSYSSLLEYQYTRLLKLFKKVIISTKKSYELNAPYLLEKESDLFSPLFGIHNAFLTLQTPYIFFIPIDTPLVSFESIKALCGIKNFSVTYAKSPTKEHYLISLWHQNTLNALIYALKTQNYRLSDLVKNTSSVAINFDKEEEFLNLNTLKDYELAVQILKKRANG”, the protein production entry is reported as “failed”.

With “MSNACLASSLLSVCFRLSTERSAMSTSRLRPRCLSVLLAALLLWGGLPTASAQPQRAVRADTLYTMTGDPIENGVVLIENETIAAVGPTSEVDVPASAEVHKASVVTPGLIDPRGTVGLSGIYNVPADQDQLDTSEPMQPALRALDAYNPREQLVSFVQQLGFTTVHTGHAPGALISGQTATFSTAGTTVEASLRDSITTVAFTLGPDAQARFESPGTRAKGVAMLRQALHDAQAAMDGGEPEGGDLGQDVLQDVLRGEVPALITAHRAHDIQTALRLQEEFGFDLILDGAAEAYLMTEEIAEADVPVILHPTMARPSGTTQNAAFTTAGVLHDAGVPVAIQTGWEPYVPKTRIALYEAAIAMAHGLPREAALASITREAAEILGLDNVGTVAPGQRADLALFDGDPFEYTTHVCTVLSGGEVVSDECK”, the protein production entry is given as “failed”.

Regarding “MARSSSFLDNLLTSPSTERYRVGLSVLFLLCVWLVVGSFSQGLPNAMLLMAAAVIGGYMAINIGANDVANNVGPAVGSGALSLGAAVLLAAVFEAAGALIAGGDVVSTIKGGIIDPTSLEDPRAFVWLMTAALLAGALWLNLATWMGAPVSTTHSIVGGVLGAGIAAGGWAIADWAVMGKIAASWVISPVLGGALAALFLFAIKKTVLYRQNLVSSARTFVPWLVAIMAWAFATYLMIKGVKKIVKVDMVEASVIGLIVAGVVFFVMRTLVGRKASTMENSAQGVNTLFTWPLIFAAALLSFAHGANDVANAIGPLAAINDAIQAGGGVVTSAKIPLWVMLVGALGLAVGLMLFGPRLIKTVGSEITELDKTRAFCIALSAALTVILASQLGLPVSSTHIAIGGVFGVGFLREYLKSNYATQLHKIIEQHDPTDQERLKPFLDDFRNASVEEMEKLLKQAKKKKQQVPLSKSERKRLKKIYREEMVKRSHLVKIAAAWIITVPASAIMAAFLFFTLRGLMV”, the protein production entry is recorded as “failed”.

“MRRPVSKWALLALLFTALLAADQWTKYLAVERLTVVFERGGDETLAERVRGFYTYRHLEPLSTEPYYVWRPVWRMNYVENPGAAWGLFRGHSQFFRNAFFTLVSVAAVAFILHYYRKLRQDQRYLQVALGLVLAGAVGNFVDRLARRYVIDFIEWYWWNRPDIRWPTFNVADSLIVVGVAMLVLHPGSRREAARAPARRDAAAERV”: the protein production entry is given as “failed”.

“MVIFNYILVCIIFGTTFLTIKIGIEAGAPPLFSAGIRFFLAGIILMIIFKLKRKEIMPHIFSKRIMYAGFCLTFMTFASLYWSEQYISSGLAAVLSATGPMMILLIQAKRNREKLQKEQLVALVIALIGVIFVSLPGMHQQVSFIWSIACIVLVIGELFYGIGSIRSKEILSDLSNVSPFLINGIQMFYGGILLLIASIIVEQPNVTVLTSWSVQWPILYLIFIGSIGGHGLYYWLLSKTNPVFPSTWLYVSPLIAIIVGYIILGEPLNPTMGMGACLILIGVFLANRSTLRTYFKKGRLLEKEM”: the protein production entry was “failed”.

For the sequence “MTNAMELYQMLPKTNCKKCGKTSCMAFAVALMARELTPEDCPPLKEEPKYKESYEKLSEIFKPSEGATETGLIVHEDLCFGCGNCVVACPPNVANDPYGVGSGKAPTNPGRLVLTVEDGVVKAQNLGECRRFGKNKILCNGCIVTCPVEAIEFV”, the protein production entry is on record as “failed”.

As for “MDHYLRWRKRQKLLADFGEFALSNDNLADILTEACRLVGNALGTQRANVLEIEPSKRSLFVRAGVGLDDGIVGKLRLPMREIASERFSPDGSPLDIIHDVHTEPQYDLAAFMEVAGVVALVNVPILLPGRTLYGLLQVESSEPREFSQDDVEFLRTYSTILGPVIDRLNKVRALRDAEERFRLIVEAAR”, the protein production entry is “not failed”.

Consider “MADVVVGIQWGDEGKGKIVDRIAKDYDFVVRYQGGHNAGHTIVHKGVKHSLHLMPSGVLYPKCKNIISSAVVVSVKDLCEEISAFEDLENRLFVSDRAHVILPYHAKKDAFKEKSQNIGTTKKGIGPCYEDKMARSGIRMGDLLDDKILEEKLNAHFKAIEPFKKAYDLGENYEKDLMGYFKTYAPKICPFIKDTTSMLIEANQKGEKILLEGAQGTLLDIDLGTYPFVTSSNTTSASACVSTGLNPKAINEVIGITKAYSTRVGNGPFPSEDTTPMGDHLRTKGAEFGTTTKRPRRCGWLDLVALKYACALNGCTQLALMKLDVLDGIDAIKVCVAYERKGERLEIFPSDLKDCVPIYQTFKGWEKSVGVRKLDDLEPNVREYIRFIEKEVGVKIRLISTSPEREDTIFL”, for which the protein production result was “failed”.

Turning to “MIDTMQYGKNDSLRDEIKAYWSGRAATFDLSPGHEIFSEDERAAWHALILKHLGRGEGRKALDLASGTGVISHLMDDLGFQVTGMDWSETMLGLAREKAKSRGRNIRFFVGDAENTMEPDESADVIITRHLVWTLVDPQASFAEWFRVLKPGGKLLIVDGDFVNTGWRERLVKKLAVSLESIGLVKADQPHKPADPENTFNSILSRVYFSKGARAGDVATMLGATGFEPVSVDQELRAIHRAQAKNFSLLKGILRGLQHRYAVCAVKPDTSVKG”, the protein production result was “failed”.

Turning to “MMDVDHKTNLTLRKYFYTLKSMKFTSITYTLSAVLLLGFSIPLVFAQTPDSGLSADCQMPIPPNLNSVDHFLGMGHFQQDCKKDLSAAVAAFSQAIKLNPQAEEPYYHRANSYAAMGNYQAAVTDYTEVIRQNTGRLGFSTGAYWHRARAYEKLGEKQKAISDLTQLIGNNSSLNAEEYLFRANLYKELGNKESAIADYKIAEKLLQQYADGVFHTGMMDTRYEQMLDQVRNELSSMGVAVTVPKTTTGNILRTIAKTEVERALNLARLQSQHPTVKNFDAQLQDLYKQLANTQPQVESGVVKNLIANAAYEKIDDLKIERSQLLTKYTLDSPIIGVIDSQTSELESLIHRNKF”, the protein production result is reported as “failed”.

With “STGNGWFAGFPIFSWYFGRDGLWMGLAANTVGMSHLTREHMRTLLIYSKDGRIPHEIGLSNDGMQSYSISDRIFNTMYMSIDSSLLWLLSNKSLENWESKGFEHDNVTRVFKFASSCDSDGDGLLENNFSDGLIGWPETWANIRNGKAVDINALWVKTVELYSNELNIANAEELKKKYLESFFSNVSFTDFIDNSGYAKSVKSAMQFVPGIFFTNNNIVETIKQLAEGNLTPWGVRSVSVDDPMFDGGYHTGTVWPLMTGWFVLSAYKNGLKDIAFKQLMTFSELAFSSPDLGRINETYDSMIANPTGQFAQGWSSSMLVLSVMQGLLGIDSIEF”, the protein production result is reported as “failed”.
